Laboratory results reported in patent publication US20200131274A1 (CRESCENDO BIOLOGICS, published 2020).
Substitutions are numbered along the chain they refer to. Names may count otherwise. Values belong to the binder of their own block, whether it stands above or below them.

Tests used:
[1] = target: T1, cynomolgus PSMA, full-length, on CHO cells (cynomolgus, UniProt A0A2K5VNZ0 1-750); assay: FMAT Mirrorball direct cell binding, purified His-tagged VH titrated on CHO cells expressing cynomolgus PSMA, FL2 median binding signal [panel cynoPSMA-CHO binding]
T1 construct: whole, on cells; also called cynoPSMA; cyno PSMA

[2] = target: T2, human prostate specific membrane antigen (PSMA), full-length, on cells (human, UniProt Q04609 1-750); assay: FMAT direct cell binding, LNCap cells
T2 construct: also called huPSMA; human PSMA
T2 sequence (Q04609 whole entry): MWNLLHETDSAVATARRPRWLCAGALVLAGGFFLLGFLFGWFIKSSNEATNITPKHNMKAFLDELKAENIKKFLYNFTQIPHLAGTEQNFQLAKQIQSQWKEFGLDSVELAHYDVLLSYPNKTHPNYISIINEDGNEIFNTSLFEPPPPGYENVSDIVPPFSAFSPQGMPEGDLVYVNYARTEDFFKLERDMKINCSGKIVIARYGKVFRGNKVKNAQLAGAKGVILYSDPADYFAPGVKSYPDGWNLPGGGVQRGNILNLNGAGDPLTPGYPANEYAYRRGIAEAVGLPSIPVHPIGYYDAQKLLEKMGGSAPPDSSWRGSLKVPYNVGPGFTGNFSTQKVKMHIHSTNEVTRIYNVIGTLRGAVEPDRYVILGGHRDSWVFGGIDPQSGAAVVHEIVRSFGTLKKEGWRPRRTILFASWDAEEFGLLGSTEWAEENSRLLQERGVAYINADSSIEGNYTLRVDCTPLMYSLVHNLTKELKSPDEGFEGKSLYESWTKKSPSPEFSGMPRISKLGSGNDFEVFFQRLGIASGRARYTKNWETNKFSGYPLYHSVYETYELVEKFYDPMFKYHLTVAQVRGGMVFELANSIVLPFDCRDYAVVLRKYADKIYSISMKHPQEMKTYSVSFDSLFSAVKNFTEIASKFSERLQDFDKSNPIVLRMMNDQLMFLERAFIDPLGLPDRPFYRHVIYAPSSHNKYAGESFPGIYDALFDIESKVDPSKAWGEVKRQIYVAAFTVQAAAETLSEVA

[3] = target: T2, human prostate specific membrane …; assay: FMAT direct cell binding, DU145 PSMA cells
[4] = target: T1, cynomolgus PSMA, full-length, on CHO …; assay: cell-based or functional assay
[5] = target: T2, human prostate specific membrane …; assay: cell-based or functional assay
[6] = target: T2, human prostate specific membrane …; assay: cell-based or functional assay; remark: listed apart in the source
[7] = target: T2, human prostate specific membrane …; assay: FMAT cell binding, huPSMA CHO 1A10 cells, after 7 days in human serum at 37 C
[8] = target: T3, recombinant human PSMA (R&D, cat. no. 4234-ZN) (human, UniProt Q04609 44-750); assay: Octet RED384 BLI, PSMA on sensor, VH series from 0.375 ug/ml
T3 construct: Bought protein; also called rhPSMA; Recombinant PMSA
T3 sequence (Q04609 44-750 limits assumed): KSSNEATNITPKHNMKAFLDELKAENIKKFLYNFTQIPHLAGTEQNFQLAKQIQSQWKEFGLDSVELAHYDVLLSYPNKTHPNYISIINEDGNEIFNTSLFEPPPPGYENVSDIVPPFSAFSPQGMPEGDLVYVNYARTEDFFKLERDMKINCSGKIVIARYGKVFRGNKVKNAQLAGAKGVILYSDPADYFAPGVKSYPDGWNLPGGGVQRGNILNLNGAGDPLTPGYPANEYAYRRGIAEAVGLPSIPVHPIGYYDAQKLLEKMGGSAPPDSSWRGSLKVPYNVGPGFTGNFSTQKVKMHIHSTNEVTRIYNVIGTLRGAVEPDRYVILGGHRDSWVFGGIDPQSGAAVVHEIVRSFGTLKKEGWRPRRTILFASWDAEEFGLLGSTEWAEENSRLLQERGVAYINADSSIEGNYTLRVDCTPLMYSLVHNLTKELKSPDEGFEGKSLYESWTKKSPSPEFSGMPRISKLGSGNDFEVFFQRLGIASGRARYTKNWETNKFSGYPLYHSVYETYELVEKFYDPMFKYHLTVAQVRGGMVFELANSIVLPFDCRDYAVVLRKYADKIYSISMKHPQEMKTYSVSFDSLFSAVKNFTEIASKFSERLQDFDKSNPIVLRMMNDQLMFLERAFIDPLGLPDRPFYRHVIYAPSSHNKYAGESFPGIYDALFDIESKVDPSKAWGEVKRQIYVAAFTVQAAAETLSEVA

[9] = target: T2, human prostate specific membrane …; assay: FMAT cell binding, huPSMA CHO 1A10 cells, after 0 days in human serum at 37 C
[10] = target: T1, cynomolgus PSMA, full-length, on CHO …; assay: FMAT direct cell binding, CHO cyno PSMA cells
[11] = target: T2, human prostate specific membrane …; assay: FMAT direct cell binding, CHO human PSMA cells
[12] = target: T2, human prostate specific membrane …; assay: FMAT cell binding, huPSMA CHO 1A10 cells, after 4 days in human serum at 37 C
[13] = target: T2, human prostate specific membrane …; assay: FMAT cell binding, huPSMA CHO 1A10 cells, after 1 day in human serum at 37 C
[14] = target: T1, cynomolgus PSMA, full-length, on CHO …; assay: cell-based or functional assay; remark: listed apart in the source
[15] = target: T3, recombinant human PSMA (R&D, cat. no. …); assay: Octet RED384 BLI, PSMA on sensor, VH purified from periplasmic extracts
[16] = target: T3, recombinant human PSMA (R&D, cat. no. …); assay: Octet RED384 BLI, PSMA amine-coupled to sensor, 1:1 model
[17] = target: T2, human prostate specific membrane …; assay: FMAT Mirrorball direct cell binding, purified His-tagged VH titrated on LNCap cells, FL2 median binding signal [panel LNCap cell binding]
[18] = target: T2, human prostate specific membrane …; assay: FMAT Mirrorball direct cell binding, purified His-tagged VH titrated on CHO cells expressing human PSMA, FL2 median binding signal [panel huPSMA-CHO binding]
[19] = target: T2, human prostate specific membrane …; assay: FMAT cell binding, huPSMA CHO cells, after 7 days in human serum at 37 C
[20] = target: T2, human prostate specific membrane …; assay: FMAT cell binding, huPSMA CHO cells, after 1 day in human serum at 37 C
[21] = target: T2, human prostate specific membrane …; assay: FMAT direct cell binding, human PSMA-CHO cells
[22] = target: T2, human prostate specific membrane …; assay: FMAT cell binding, huPSMA CHO cells, after 0 days in human serum at 37 C
[23] = target: T2, human prostate specific membrane …; assay: FMAT cell binding, huPSMA CHO cells, after 4 days in human serum at 37 C
[24] = target: T2, human prostate specific membrane …; assay: FMAT cell binding, huPSMA CHO 1A10 cells, after 0 days in human serum at 37 C; remark: listed apart in the source
[25] = target: T2, human prostate specific membrane …; assay: FMAT cell binding, huPSMA CHO 1A10 cells, after 4 days in human serum at 37 C; remark: listed apart in the source
[26] = target: T2, human prostate specific membrane …; assay: FMAT cell binding, huPSMA CHO 1A10 cells, after 1 day in human serum at 37 C; remark: listed apart in the source
[27] = target: T2, human prostate specific membrane …; assay: FMAT cell binding, huPSMA CHO 1A10 cells, after 7 days in human serum at 37 C; remark: listed apart in the source
[28] = target: T3, recombinant human PSMA (R&D, cat. no. …); assay: Octet RED384 BLI, PSMA on sensor, VH series from 0.375 ug/ml; remark: listed apart in the source

EC50 (read off the curve) [1]: ~1000 pM
B1: 2.10 (VHH)
VHH: EVQLVESGGGVVQPGRSLRLSCAASGFTFSGYGMHWVRQAPGKGLEWVAYISYDGSNRYYADSVKGRFTISRDNSKKTLSLQMNSLRAEDTAVYYCAKDPAWGLRLGESSSYDFDIWGQGTMVTVSS
notes: On the sheet it is the filled up triangle; also called single VH domain antibody 2.10

EC50 [2]: 153 pM | EC50 [3]: 229 pM | pHrodo Green internalization assay, human PSMA Average EC50 (M) [6]: 6.7e-10 M | EC50 [7]: 328 pM | Kd [8]: 2620 pM | koff [8]: 0.00244 s⁻¹ | EC50 [9]: 305 pM | EC50 [10]: 613 pM | EC50 [11]: 123 pM | EC50 [12]: 340 pM | EC50 [13]: 291 pM
B2: single VH domain antibody 2.22 (VHH)
VHH: B1 VHH with T28S, M34T, R58K, D62A, S63P, K77N, S80Y, P100A
notes: Human single VH domain antibody (Humabody); C-terminal His tag, residues not tied
His-ZAP cell killing, cyno PSMA EC50 [4]: 180 pM | His-ZAP cell killing, human PSMA Average EC50 [5]: 69 pM

EC50 [2]: 11.3 pM | EC50 [3]: 218 pM | pHrodo Green internalization assay, human PSMA Average EC50 (M) [6]: 8e-10 M | EC50 [7]: 238 pM | Kd [8]: 760 pM | koff [8]: 0.000726 s⁻¹ | EC50 [9]: 230 pM | EC50 [10]: 308 pM | EC50 [11]: 100 pM | EC50 [12]: 228 pM | EC50 [13]: 210 pM
B3: single VH domain antibody 2.17 (VHH)
VHH: B1 VHH with T28S, G55A, R58K, S63N, K77N, S80Y
notes: as for B2
His-ZAP cell killing, cyno PSMA EC50 [4]: 70 pM | His-ZAP cell killing, human PSMA Average EC50 [5]: 35 pM

EC50 (read off the curve): pHrodo Green internalisation signal FL2, CHO cells expressing cynomolgus PSMA [14]: ~2e-09 M | Kd [15]: 30000 pM | koff [15]: 0.0091 s⁻¹
B4: single VH domain antibody 5.1 (VHH)
VHH: QVQLVESGGGVVQPGRSLRLSCAASGFTFNNYGMHWVRQAPGKGLEWVAIISYDGNTKYYTDSVKGRFTISRDNSKNTLYLQMNSLRVEDTAVYYCAKGLWPSDVWGQGTTVTVSS
notes: Human single VH domain antibody (Humabody); purified via the C-terminal His-tag, residues not tied

Kd [16]: 3780 pM | koff [16]: 0.000452 s⁻¹ | EC50 (read off the curve) [1]: ~2000 pM | EC50 (read off the curve) [17]: ~2000 pM | EC50 (read off the curve) [18]: ~2000 pM
B5: single VH domain antibody 3.1 (VHH)
VHH: EVQLVESGGGVVQPGRSLRLSCAASGFPLISYGMHWVRQAPGKGLEWVAFMTYDGSNRYYADSVKGRFTISRDNSKNTLYLQMNSLRDEDTALYYCARDRIVGGRVPDAFDIWGQGTMVTVSS
notes: Human single VH domain antibody (Humabody); C-terminal His tag, residues not tied; also called VH3.1

EC50 [19]: 86.5 pM | EC50 [20]: 60.5 pM | EC50 [21]: 287 pM | EC50 [22]: 89.2 pM | EC50 [23]: 73.6 pM
B6: 1.11-6GS-2.1 (bispecific antibody)
chain: EVQLLESGGGLVQPGGSLRLSCAASGFSFSSYALSWVRQAPGKGLEWVSSIGENNDTTDYADNVKGRFTISRDNSKNTLYLQMNSLRVEDTAVYYCVKDGVHWGQGTLVTVSSGGGGSGGGGSGGGGSGGGGSGGGGSGGGGSEVQLVESGGGVVQPGRSLRLSCAASGFSFSGYGMHWVRQAPGKGLEWVAYISYDGSNKYYADSVKGRFTISRDNSKNTLYLQMNSLRAEDTAVYYCAKDPAWGLRLGESSSYDFDIWGQGTMVTVSS
notes: linker (G4S)6; also called 1.11-2.1
His-ZAP cell killing, cyno PSMA Average EC50 [4]: 12 pM | His-ZAP cell killing, human PSMA Average EC50 [5]: 17 pM

EC50 [19]: 101 pM | EC50 [20]: 72.5 pM | EC50 [21]: 280 pM | EC50 [22]: 63.9 pM | EC50 [23]: 84.4 pM
B7: 1.11-6GS-2.17 (bispecific antibody)
chain: B6 chain with G198A, S206N
notes: linker (G4S)6
His-ZAP cell killing, cyno PSMA Average EC50 [4]: 8.1 pM | His-ZAP cell killing, human PSMA Average EC50 [5]: 7.9 pM

EC50 [19]: 67.5 pM | EC50 [20]: 94.4 pM | EC50 [21]: 333 pM | EC50 [22]: 74.1 pM | EC50 [23]: 62.8 pM
B8: 1.16-6GS-2.17 (bispecific antibody)
chain: B6 chain with D56H, N63T, G198A, S206N
notes: linker (G4S)6
His-ZAP cell killing, cyno PSMA Average EC50 [4]: 11 pM | His-ZAP cell killing, human PSMA Average EC50 [5]: 15 pM

EC50 [19]: 107 pM | EC50 [20]: 86 pM | EC50 [21]: 306 pM | EC50 [22]: 90.2 pM | EC50 [23]: 100 pM
B9: 1.16-6GS-2.1 (bispecific antibody)
chain: B6 chain with D56H, N63T
notes: linker (G4S)6
His-ZAP cell killing, cyno PSMA Average EC50 [4]: 13 pM | His-ZAP cell killing, human PSMA Average EC50 [5]: 14 pM

EC50 [2]: 119 pM | EC50 [3]: 76 pM | pHrodo Green internalization assay, human PSMA Average EC50 (M) [6]: 3.7e-10 M | EC50 [10]: 217 pM | EC50 [24]: 234 pM | EC50 [11]: 86.3 pM | EC50 [25]: 227 pM | EC50 [26]: 208 pM | EC50 [27]: 278 pM | Kd [28]: 800 pM | koff [28]: 0.000495 s⁻¹
B10: single VH domain antibody 1.11 (VHH)
VHH: EVQLLESGGGLVQPGGSLRLSCAASGFSFSSYALSWVRQAPGKGLEWVSSIGENNDTTDYADNVKGRFTISRDNSKNTLYLQMNSLRVEDTAVYYCVKDGVHWGQGTLVTVSS
notes: Human single VH domain antibody (Humabody)
His-ZAP cell killing, cyno PSMA EC50 [4]: 410 pM | His-ZAP cell killing, human PSMA Average EC50 [5]: 14 pM

EC50 [2]: 75.4 pM | EC50 [3]: 59.4 pM | pHrodo Green internalization assay, human PSMA Average EC50 (M) [6]: 4.8e-10 M | EC50 [10]: 146 pM | EC50 [24]: 165 pM | EC50 [11]: 68 pM | EC50 [25]: 242 pM | EC50 [26]: 243 pM | EC50 [27]: 236 pM | Kd [28]: 440 pM | koff [28]: 0.000365 s⁻¹
B11: single VH domain antibody 1.16 (VHH)
VHH: B10 VHH with D56H, N63T
notes: as for B10
His-ZAP cell killing, cyno PSMA EC50 [4]: 420 pM | His-ZAP cell killing, human PSMA Average EC50 [5]: 17 pM

EC50 [2]: 42.4 pM | EC50 [3]: 49.5 pM | pHrodo Green internalization assay, human PSMA Average EC50 (M) [6]: 3.1e-10 M | EC50 [10]: 124 pM | EC50 [24]: 304 pM | EC50 [11]: 58.6 pM | EC50 [25]: 319 pM | EC50 [26]: 311 pM | EC50 [27]: 313 pM | Kd [28]: 590 pM | koff [28]: 0.000572 s⁻¹
B12: single VH domain antibody 1.18 (VHH)
VHH: B10 VHH with D56A, D62A, N63S
notes: as for B10
His-ZAP cell killing, cyno PSMA EC50 [4]: 480 pM | His-ZAP cell killing, human PSMA Average EC50 [5]: 23 pM
